System: Bacillus subtilis
Assay: cleaved RNA product abundance (RNA/gDNA barcode ratio) relative to median wild-type variant (ratio to wild type); higher = more accumulation of the downstream cleavage product
Procedure: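 MPRA in B. subtilis. Mutagenized RNase Y cleavage-site regions (9% mutation rate) were inserted into a barcoded reporter mRNA (truncated aprE or tetM). Cells were grown in LB at 37°C to OD600 0.3. The cleaved RNA isoform was gel-purified and its barcodes counted; the RNA:gDNA barcode ratio was normalised to the median wild-type variant, and the median over barcodes is reported per variant. The printed sequence is the variable window only; the reporter flanks are not printed.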

[1] = experiment (reporter, strain, medium): exp 2b: truncated aprE reporter, strain BJT200, cleavage site: cggR-gapA (positions -7 to +36 mutated)
[2] = experiment (reporter, strain, medium): exp 4a: truncated aprE reporter, strain BJT201 with 2% xylose (RNase J1 expressed), cleavage site: cggR-gapA (positions -7 to +36 mutated)
[3] = experiment (reporter, strain, medium): exp 8a: truncated aprE reporter, strain BJT201 with 2% xylose (RNase J1 expressed), cleavage site: glnRA (positions -5 to +31 mutated)

Sequence	cleaved RNA product abundance [1]	cleaved RNA product abundance [2]	cleaved RNA product abundance [3]
ACAGACGAAGGAGCCGCAAAGAAGTTATTAAGCGATGAATAATACCTCAATATAAATATCTCTCACTTATTTAAA	0.0864	0.127	–
CGACATGTCCCGCTTCTTTCATTAATCCGTTAGCCAATGTTTTGCTATATACATTTACCTTTTAAGAGGAGGAAT	–	–	0.576
ACAGACGAAGGAGCCGCAAAGAAGTTATTAAGGGATGAATAATCCTTCAATATAAATAACTCTCACTTATTTAAA	0.395	0.935	–
CGACATGTCCCGCTTCTTTCATTACTCCGTTAGCAACTGTATTGCTATATACATTTACCTTTTAAGAGGAGGAAT	–	–	0.89
ACAGACGAAGGAGCCGCAAAGAAGTTATTATGGGATGAATAATCCGTCAATATAAATATCTCTCACTTATTTAAA	–	0.279	–
ACAGACGAAGGAGCCGCAAAGAAGTTATTAAGGGATGAATAATCCATGAATATAAATATCTCTCACTTATTTAAA	–	0.18	–
ACAGACGAAGGAGCCGCAAAGAAGTTATTAAGGGATGAATAATCCCACATTATAAATATCTCTCACTTATTTAAA	–	0.152	–
ACAGACGAAGGAGCCGCAAAGAAGTTATTAAGGTATGAATAATCCCTCAATTTAAATATCTCTCACTTATTTAAA	0.0856	0.0555	–
ACAGACGAAGGAGCCGCAAAGAAGTTATTAAGAGATGAATAATCCCTCAACATAAATATCTCTCACTTATTTAAA	0.111	0.132	–
ACAGACGAAGGAGCCGCAAAGAAGTTATTAAGAGATGAATAATCCCTCTATATAAATATCTCTCACTTATTTAAA	–	0.118	–
ACAGACGAAGGAGCCGCAAAGAAGTTATTAAGGAATGAATTATCCCTCAATATAAATATCTCTCACTTATTTAAA	–	0.0807	–
CGACATGTCCCGCTTCTTTCATTAATCCGTTAGCAAATGTTTTGCTATATACATTTACCTTTTAAGAGGAGGAAT	–	–	1.17
CGACATGTCCCGCTTCTTTCATTAATCCGTTAGCAACTGTTTTACTATATACGTTTACCTTTTAAGAGGAGGAAT	–	–	0.455
ACAGACGAAGGAGCCGCAAATAAGTTATTAAGGGATGAATAATCCCTTAATATAAATATCTCTCACTTATTTAAA	–	0.452	–
ACAGACGAAGGAGCCGCAAAGCAGTTATTAAGGGATGAAAAATCCCTCAATATAAATATCTCTCACTTATTTAAA	–	0.687	–
CGACATGTCCCGCTTCTTTCATTAATCCGTTAGCAACTGTTTTGATATATACATTTTCCTTTTAAGAGGAGGAAT	–	–	0.376
CGACATGTCCCGCTTCTTTCATTAATCCGTTAGCAACTGTTTTGCAATATATATTTACCTTTTAAGAGGAGGAAT	–	–	0.379
ACAGACGAAGGAGCCGCAAAGAAGTTATTAAGGGATGACTAATCCCTCTATATAAATATCTCTCACTTATTTAAA	–	0.337	–
ACAGACGAAGGAGCCGCAAAGAAGTTACTAAGGGATGAATAATCCCACAATATAAATATCTCTCACTTATTTAAA	0.126	0.153	–
ACAGACGAAGGAGCCGCAAAGAAGTTATTAAGGGATAAATAATCCCTCAATATAAATCTCTCTCACTTATTTAAA	0.559	0.65	–

Sequence	cleaved RNA product abundance [1]	cleaved RNA product abundance [2]	cleaved RNA product abundance [3]
ACAGACGAAGGAGCCGCAAAGAGGTTATTAAGTGATGAATAATCCCTCAATATAAATATCTCTCACTTATTTAAA	–	0.0848	–
ACAGACGAAGGAGCCGCAAAGAAGTTATTAAGGGATGAATAATCCCTCAATATAAAAATCACTCACTTATTTAAA	–	1.16	–
CGACATGTCCCGCTTCTTTCATTATTCCGTAAGCGACTGTTTTGATATATACATTTACCTTTTAAGAGGGGGAAT	–	–	0.359
ACAGACGAAGGAGCCGCAAAGAAGTTATTAAGGGATGAATAGTCCTTCAATATAAATATCTCTCACTTATTTAAA	–	0.359	–
CGACATGTCCCGCTTCTTTCATTAATCCATTAGCAACTGTTTTGCTATAGACATTTACCTTTTAAGAGGAGGAAT	–	–	0.532
CGACATGTCCCGCTTCTTTCATTAATCCGTTAACAACTGTTTTGCGATATACATTTACCTTTTAAGAGGAGGAAT	–	–	0.215
ACAGACGAAGGAGCCGCAAAGAAGTTATTAAGGGATGACTAATCCCTCATTATAAATATCTCTCACTTATTTAAA	0.155	0.208	–
ACAGACGAAGGAGCCGCAAAGAAGTTATTAAGGCATGAATAATCCCTCAATATAAATTTCTCTCACTTATTTAAA	0.0999	0.0847	–
CGACATGTCCCGCTTCTTTCATTAATCCGTTAACAACTGTTTTGCTGTATACATTTACCTTTTAAGAGGAGGAAT	–	–	0.166
ACAGACGAAGGAGCCGCAAACAAGTTATTAAGGGATGAATAATCCCTGAATATAAATATCTCTCACTTATTTAAA	–	0.455	–
ACAGACGAAGGAGCCGCAAAGAAGTTATTAAGGGATGCATAATCCCACAATATAAATATCTCTCACTTATTTAAA	–	0.204	–
ACAGACGAAGGAGCCGCCAAGAAGTTATTAAGGAATGAATAATCCCTCAATATAAATATCTCTCACTTATTTAAA	–	0.107	–
ACAGACGAAGGAGCCGCAAAGAAGTTATTAAGGGATCAATAATTCCTCAATATAAATATCTCTCACTTATTTAAA	–	0.22	–
ACAGACGAAGGAGCCGCAAAGAAGTTATTAAGGGATGACTAATCCTTCAATATAAATATCTCTCACTTATTTAAA	–	0.251	–
ACAGACGAAGGAGCCGCAAAATAGTTATTAAGGGATGAATAATCCCTCAATATAAATATCTCTCACTTATTTAAA	–	0.703	–
ACAGACGAAGGAGCCGCAAAGAAGTTATTAAGGGGTGAATAATCCGTCAATATAAATATCTCTCACTTATTTAAA	0.159	0.0683	–
CGACATGTCCCGCTTCTTTCATTAATCCGTTAGCAACTGTTTTGCTATAAATATTTACCTTTTAAGAGGAGGAAT	–	–	1.49
ACAGACGAAGGAGCCGCAAAGAAGTTATTAAGGGATGAATAATTCCTCAATATAAATGTCTCTCACTTATTTAAA	–	0.564	–
CGACATGTCCCGCTTCTTTCATTAATCCGTTAGCAACTGTATTCCTATATACATTTACCTTTTAAGAGGAGGAAT	–	–	0.45
CGACATGTCCCGCTTCTTTCATTAATGCGTTAGCAACTGTTTTGCTATATACATTTACCTTTTAAGAGGAGGAAT	–	–	0.633

Sequence	cleaved RNA product abundance [1]	cleaved RNA product abundance [2]	cleaved RNA product abundance [3]
ACAGACGAAGGAGCCGCAAAGAAGTTATTAAGGGATGAATAATCCCTAATTATAAATATCTCTCACTTATTTAAA	0.365	0.447	–
CGACATGTCCCGCTTCTTTCATTACTACCTTAGCAACTGTTTTGCTATATACATTTACCTTTTAAGAGGAGGAAT	–	–	0.4
CGACATGTCCCGCTTCTTTCATTAATCTGTTAGCAACTGTTTTGCTATATCCATTTACCTTTTAAGAGGAGGAAT	–	–	0.263
CGACATGTCCCGCTTCTTTCATTACTCCGTTAGCAAATGTTTTGCTATATACATTTACCTTTTAAGAGGAGGAAT	–	–	1.14
CGACATGTCCCGCTTCTTTCATTAATCCGTTAGCAACTGTTTTACTATATACAATTACTTTTTAAGAGGAGGAAT	–	–	0.712
CGACATGTCCCGCTTCTTTCATTAATCCGTTAGCAAATGTTTTGCTATATACATTTTCCTTTTAAGAGGAGGAAT	–	–	0.6
CGACATGTCCCGCTTCTTTCATTAATCCGTTAGCAACTGATTTGCAATATACATTTACCTTTTAAGAGGAGGAAT	–	–	0.49
CGACATGTCCCGCTTCTTTCATTAATCCGTTTGCAACTGTTTTGCTAAATACATTTACCTTTTAAGAGGAGGAAT	–	–	0.289
ACAGACGAAGGAGCCGCAAAGAAGTTATTAAGGGAAGAATACTCCCTCAATATAAATATCTCTCACTTATTTAAA	0.632	1.01	–
CGACATGTCCCGCTTCTTTCATTAATCCGTTAGCAACTGTTTTGATATATACATTTACATTTTAAGAGGAGGAAT	–	–	0.372
ACAGACGAAGGAGCCGCAAAGAAGTTATTAAGGGATGAATAATCCCTCTATCTAAATATCTCTCACTTATTTAAA	–	0.101	–
ACAGACGAAGGAGCCGCCAAGAAGTTATTAAAGGATGAATAATCCCTCAATATAAATATCTCTCACTTATTTAAA	–	0.144	–
ACAGACGAAGGAGCCGCAAAGAAGTTATTAAGGGAAGAATAGTCCCTCAATATAAATATCTCTCACTTATTTAAA	–	0.594	–
CGACATGTCCCGCTTCTTTCATTAATCCTTTAGCAACTGTTTTGCTATATACAGTTACCTTTTAAGAGGAGGAAT	–	–	0.604
ACAGACGAAGGAGCCGCAAAGAAGTTATTAAGGGATGAATAATCCCTCAGGATAAATATCTCTCACTTATTTAAA	0.131	–	–
ACAGACGAAGGAGCCGCAAAGAATTTATTAAAGGATGAATAATCCCTCAATATAAATATCTCTCACTTATTTAAA	0.171	0.213	–
CGACATGTCCCGCTTCTTTCATTAATCAGTTAGCAACTGTTTTGCTATATAGATTTACCTTTTAAGAGGAGGAAT	–	–	0.842
ACAGACGAAGGAGCCGCAAAGAAGTTGTTAAGGGATGAATAATCACTCAATATAAATATCTCTCACTTATTTAAA	–	0.0768	–
ACAGACGAAGGAGCCGCAAAGAAGTTATTAAGGGATGAATAATACCTCCATATAAATATCTCTCACTTATTTAAA	0.069	0.092	–
ACAGACGAAGGAGCCGCAAAGAAATTATTAAGGGATGAATAATCCCTCTATATAAATATCTCTCACTTATTTAAA	0.418	0.319	–

— the supplement of paper PMC11780869
